Results from patent US20250352659A1, “SELF-STABILIZING LINKER CONJUGATES” (priority 2023, published 2025).
Like-named read-outs stand apart in the source and are kept apart here.

Columns and labels:
[1] = Conjugator-antibody conjugate maleimide hydrolysis (ring opening) kinetics by reduced LCMS; format: physicochemical
Procedure: After the conjugation step, the ADC (or conjugator-antibody conjugate) was subjected to buffer exchange into ring opening buffer (pH 6.5˜9.0, PBS, borate or tris buffer) and the solution was left at 22 or 37° C. for 1˜48 h. The maleimide ring opening process was monitored via reduced LCMS. Once the conjugated maleimide hydrolysis was completed, the resulting ADCs were buffer exchanged into basic tris pH 8.0-8.5 buffer or acidic histidine-acetate pH 5.0-6.5 buffer via dialysis.
LCMS method to monitor and determine maleimide hydrolysis. LC-MS analysis was carried out under the following measurement conditions: • LC-MS system: Vanquish Flex UHPLC and Orbitrap Exploris 240 Mass Spectrometer • Column: MAbPac™ RP, 2.1*50 mm, 4 μm, 1,500 Å, Thermo Scientific™ • Column temperature: 80° C. • Mobile phase A: 0.1% formic acid (FA) aqueous solution • Mobile phase B: Acetonitrile solution containing 0.1% formic acid (FA) • Gradient program 1: 25% B-25% B (0 min-2 min), 25% B-50% B (2 min-18 min), 50% B-90% B (18 min-18.1 min), 90% B-90% B (18.1 min-20 min), 90% B-25% B (20 min-20.1 min), 25% B-25% B (20.1 min-25 min) • Gradient program 2 • Injected sample amount: 2 μg • MS parameters: Intact and denaturing MS data were acquired in HMR mode at setting of R=15k and deconvolved using the ReSpect™ algorithm and Sliding Window integration in Thermo Scientific™ BioPharma Finder™ 4.0 software.
Results for ring opening times measured by the LCMS method described above for monitoring ring hydrolysis are presented in Table 3 as RO T1/2 (h) (i.e., the time, in hours, for 50% of the maleimide rings to open).
Conjugator-antibody conjugate maleimide hydrolysis (ring opening) kinetics are presented in FIGS. 1A-1L, Table 3 (for pH 7.0 reaction conditions, hydrolysis T1/2), and Table 5. The data in Table 5 was generated by the LCMS method described above and includes the time, in hours, for the maleimide ring to open in more than 95% of the conjugators, after antibody conjugation (“RO Completed Time (>95%) (h)”). The results for conjugator-antibody conjugate 3-1 indicate that after 24 hours, about 0% of maleimide rings were open; the results for conjugator-antibody conjugate 3-3 indicate that after 24 hours, about 28% of maleimide rings were open.

[2] = Conjugator-antibody conjugate stability in formulation buffer (pH 5.5 20 mM histidine buffer); format: physicochemical; details: pH 5.5, 22 °C
Procedure: After the conjugation and hydrolysis steps described above (see “DAR8 antibody drug conjugate/conjugator-antibody conjugate preparation”), conjugator-antibody conjugates were incubated in formulation buffer (pH 5.5 20 mM histidine buffer) or glutathione (GSH) buffer (pH 7.4 or 8.0), […] Hydrolysis status was monitored via reduced LCMS. Results are presented in Table 6, Table 7, and FIGS. 2A-23B.

[3] = Conjugator-antibody conjugate stability in pH 7.4 and 8.0 buffer with and without GSH; format: physicochemical; details: incubation 20 h;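 also: conjugate hydrolysis tracked by LC-MS analysis of reduced samples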
[4] = Conjugator-antibody conjugate maleimide hydrolysis (ring opening) kinetics by reduced LCMS; format: physicochemical; details: pH 7, time point 96 h
[5] = target: T1, B7H3 (human, UniProt Q5ZPR3 29-534); experiment: cell-based or functional assay
T1 sequence (looked up): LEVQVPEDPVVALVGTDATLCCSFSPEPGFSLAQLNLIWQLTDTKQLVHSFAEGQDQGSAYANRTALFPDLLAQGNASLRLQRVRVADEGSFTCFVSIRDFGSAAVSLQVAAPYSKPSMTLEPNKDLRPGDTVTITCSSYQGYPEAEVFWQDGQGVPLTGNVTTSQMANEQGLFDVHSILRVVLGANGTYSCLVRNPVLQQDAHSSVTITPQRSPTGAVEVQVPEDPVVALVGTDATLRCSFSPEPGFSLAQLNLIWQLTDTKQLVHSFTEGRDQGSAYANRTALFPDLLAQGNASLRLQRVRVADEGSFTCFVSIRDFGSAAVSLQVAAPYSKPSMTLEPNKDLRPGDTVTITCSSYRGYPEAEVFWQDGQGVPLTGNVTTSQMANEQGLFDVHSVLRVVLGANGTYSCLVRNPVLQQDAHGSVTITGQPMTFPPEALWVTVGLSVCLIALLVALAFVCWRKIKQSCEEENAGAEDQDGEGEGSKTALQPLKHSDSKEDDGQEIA

[6] = target: T1, B7H3; experiment: cell-based or functional assay; remark: listed apart in the source

Molecule: CN(C)C(=O)CCNC(=O)OCC(CCN)N1C(=O)C=CC1=O (stereo not drawn) [3-11]
- half-life ([1]; buffer, pH 7.0, time for 50% of the maleimide rings to open, read-out: RO T1/2 (converted)): 14 h
- MS DAR ([1]; pH 7, time point 1 h): 8
- RO (%) HC ([1]; pH 7, time point 1 h): 3.41%
- RO (%) LC ([1]; pH 7, time point 1 h): 1.97%
- RO (%) Total ([1]; pH 7, time point 1 h): 3.05%
- MS DAR ([1]; pH 7, time point 3 h): 8
- RO (%) HC ([1]; pH 7, time point 3 h): 12.32%
- RO (%) LC ([1]; pH 7, time point 3 h): 6.37%
- RO (%) Total ([1]; pH 7, time point 3 h): 10.83%
- MS DAR ([1]; pH 7, time point 5 h): 8
- RO (%) HC ([1]; pH 7, time point 5 h): 31.72%
- RO (%) LC ([1]; pH 7, time point 5 h): 10.15%
- RO (%) Total ([1]; pH 7, time point 5 h): 26.33%
- MS DAR ([1]; pH 7, time point 7 h): 8
- RO (%) HC ([1]; pH 7, time point 7 h): 33.03%
- RO (%) LC ([1]; pH 7, time point 7 h): 14.6%
- RO (%) Total ([1]; pH 7, time point 7 h): 28.42%
- MS DAR ([1]; pH 7, time point 24 h): 8
- RO (%) HC ([1]; pH 7, time point 24 h): 84.46%
- RO (%) LC ([1]; pH 7, time point 24 h): 68.64%
- RO (%) Total ([1]; pH 7, time point 24 h): 80.51%
- MS DAR ([1]; pH 7, time point 96 h): 8
- RO (%) HC ([1]; pH 7, time point 96 h): 96.94%
- RO (%) LC ([1]; pH 7, time point 96 h): 89.26%
- RO Completed Time (>95%) ([1]; pH 7, time for the maleimide ring to open in more than 95% of the conjugators): 96 h
- MS DAR-T = 168 h ([2]; incubation 168 h): 8.00
- Maleimide ring opening ratio (%) at T = 168 h ([2]; incubation 168 h): 96.99%
- MS DAR-T = 0 h [2]: 8.02
- MS DAR ([3]; pH 7.4, 22 °C): 8.00
- MS DAR ([3]; pH 7.4, 37 °C): 8.00
- MS DAR ([3]; pH 8.0, 22 °C): 8.00
- RO (%) Total [4]: 95.02%

B1: ADC4-B (antibody, human IgG1, kappa, V domains shown)
VH: QVQLVQSGAEVKKPGSSVKVSCKASGYTFTNYVMHWVRQAPGQGLEWMGYINPYNDDVKYNEKFKGRVTITADESTSTAYMELSSLRSEDTAVYYCARWGYYGSPLYYFDYWGQGTLVTVSS
VL: EIVLTQSPATLSLSPGERATLSCRASSRLIYMHWYQQKPGQAPRPLIYATSNLASGIPARFSGSGSGTDFTLTISSLEPEDFAVYYCQQWNSNPPTFGQGTKVEIKR
modifications: conjugator-linker-payload on cysteine thiols after TCEP reduction (DAR8); residues not numbered; structure given only as a drawing
- EC50 (nM), ADC direct killing, Capan-1 (Low), 3D [5]: 1.1 nM
- EC50 (nM), ADC direct killing, NCI-H1650 (High), 3D [5]: 4.5 nM
- Emax (%), ADC direct killing, Capan-1 (Low), 3D [5]: 74.3%
- Emax (%), ADC direct killing, NCI-H1650 (High), 3D [5]: 66.5%
- EC50 (nM), ADC direct killing, Capan-1 (Low), 3D [6]: 0.5 nM
- EC50 (nM), ADC direct killing, NCI-H1650 (High), 3D [6]: 3.9 nM
- Emax (%), ADC direct killing, Capan-1 (Low), 3D [6]: 84.9%
- Emax (%), ADC direct killing, NCI-H1650 (High), 3D [6]: 75.3%

B2: ADC4-12 (antibody, human IgG1, kappa, V domains shown)
VH: QVQLVQSGAEVKKPGSSVKVSCKASGYTFTNYVMHWVRQAPGQGLEWMGYINPYNDDVKYNEKFKGRVTITADESTSTAYMELSSLRSEDTAVYYCARWGYYGSPLYYFDYWGQGTLVTVSS
VL: EIVLTQSPATLSLSPGERATLSCRASSRLIYMHWYQQKPGQAPRPLIYATSNLASGIPARFSGSGSGTDFTLTISSLEPEDFAVYYCQQWNSNPPTFGQGTKVEIKR
modifications: conjugator-linker-payload on cysteine thiols after TCEP reduction (DAR8), maleimide hydrolysed; residues not numbered; structure given only as a drawing
- EC50 (nM), ADC direct killing, NCI-H1650 (High), 3D [5]: 2.3 nM
- Emax (%), ADC direct killing, Capan-1 (Low), 3D [5]: 61.9%
- Emax (%), ADC direct killing, NCI-H1650 (High), 3D [5]: 83.2%

B3: ADC4-13 (antibody, human IgG1, kappa, V domains shown)
VH: QVQLVQSGAEVKKPGSSVKVSCKASGYTFTNYVMHWVRQAPGQGLEWMGYINPYNDDVKYNEKFKGRVTITADESTSTAYMELSSLRSEDTAVYYCARWGYYGSPLYYFDYWGQGTLVTVSS
VL: EIVLTQSPATLSLSPGERATLSCRASSRLIYMHWYQQKPGQAPRPLIYATSNLASGIPARFSGSGSGTDFTLTISSLEPEDFAVYYCQQWNSNPPTFGQGTKVEIKR
modifications: conjugator-linker-payload on cysteine thiols after TCEP reduction (DAR8), maleimide hydrolysed; residues not numbered; structure given only as a drawing
- EC50 (nM), ADC direct killing, Capan-1 (Low), 3D [5]: 0.5 nM
- EC50 (nM), ADC direct killing, NCI-H1650 (High), 3D [5]: 1.6 nM
- Emax (%), ADC direct killing, Capan-1 (Low), 3D [5]: 58.5%
- Emax (%), ADC direct killing, NCI-H1650 (High), 3D [5]: 79.3%

B4: ADC4-8 (antibody, human IgG1, kappa, V domains shown)
VH: QVQLVQSGAEVKKPGSSVKVSCKASGYTFTNYVMHWVRQAPGQGLEWMGYINPYNDDVKYNEKFKGRVTITADESTSTAYMELSSLRSEDTAVYYCARWGYYGSPLYYFDYWGQGTLVTVSS
VL: EIVLTQSPATLSLSPGERATLSCRASSRLIYMHWYQQKPGQAPRPLIYATSNLASGIPARFSGSGSGTDFTLTISSLEPEDFAVYYCQQWNSNPPTFGQGTKVEIKR
modifications: conjugator-linker-payload on cysteine thiols after TCEP reduction (DAR8), maleimide hydrolysed; residues not numbered; structure given only as a drawing
- EC50 (nM), ADC direct killing, Capan-1 (Low), 3D [6]: 1 nM
- EC50 (nM), ADC direct killing, NCI-H1650 (High), 3D [6]: 2.9 nM
- Emax (%), ADC direct killing, Capan-1 (Low), 3D [6]: 66.6%
- Emax (%), ADC direct killing, NCI-H1650 (High), 3D [6]: 79.5%
